Square brackets hold non-standard residues; d marks the D form. Ends that are not written are not given here. fluorescein = fluorescein label at the N-terminus
Assay: Optimization of peptide reporters for LC/MS detection
Settings: compared with other peptides of the same proteolytic-product group with longer or less hydrophilic caps; FIG. 8B
Text: A series of peptides (A1-A14) of different sequence were investigated to determine optimal sequence length and charge density that would enable facile detection via LC/MS. Three representative proteolytic products, sequences GGVVVLS (SEQ ID NO: 19), GGPVG (SEQ ID NO: 13), and GGdFPipR (SEQ ID NO: 17) were selected and appended with peptide caps of differing length and charge density (FIG. 8A). The sequences were then detected via LC/MS. […] A hydrophilic molecule is a molecule that can transiently hydrogen-bond with water and is, thus, soluble in water and, in some embodiments, in other polar solvents. Hydrophilicity of peptides can be modulated according to methods well known in the art. In some embodiments, removal of the fluorescein tag will increase the hydrophilicity of the peptides reported in this disclosure. In some embodiments, modification of the sequences to contain positively charged residues (Histidine, Lysine, and Arginine) and/or negatively charged residues (glutamic acid and aspartic acid) will increase the hydrophilicity. […] Of the tested cap sequences Fl-dR-dS-dR (SEQ ID NO: 20) and Fl-dR-G-dS-dR (SEQ ID NO: 21) were determined to be advantageous. Accordingly, for non-fluorescent detection, the cap sequences dR-dS-dR (SEQ ID NO: 35) and dR-G-dS-dR (SEQ ID NO: 36) were determined to be advantageous. […]

Row | Substance | detection via LC/MS (normalized relative intensities of the peptide reporters)
1 | Fl-dR-G-dS-dR (fluorescein-[dR]G[dS][dR]) | advantageous
2 | Fl-dR-dS-dR (fluorescein-[dR]-[dS]-[dR]) | advantageous

Reference: patent US11703510B2, “Methods and products for in vivo enzyme profiling” (Massachusetts Institute of Technology, priority 2009, dated 2023)
